Source: patent US20240239894A1 (AstraZeneca / MedImmune, published 2024)

B1: ZY0EPQ-E02 human IgG1 (antibody, V domains shown)
VH: QVQLQQWGAGLLKPSETLSLTCAVYGGSFSGYYWNWIRQPPGKGLEWIGEINHSGSTNYNPSLKSRVTILVDTSKNQFSLKLSSVTAADTAVYYCARNLYNWNLDSWGQGTLVTVSS
VL: DIQMTQSPSSLSASVGDRVTITCRASQGIRNDLGWYQQKPGRAPKRLIYVASSLQSGVPSRFSGSGSGTEFTLTISSLQPEDFATYYCLQHNSYPRTFGQGTKVEIK
B2: ZY0EQD-E02 human IgG1 (antibody, V domains shown)
VH: QVQLQQWGAGLLKPSETLSLTCAVYGGSFSGYYWNWIRQPPGKGLEWIGEINHSGSTSYNPSLKSRVTISVDTSKNQFSLKLSSVTAADTAVYYCARVLYNWNVDSWGQGTLVTVSS
VL: DIQMTQSPSSLSASVGDRVTITCRASQDIRNDVGWYQQKPGKAPKRLIYAASRLQSGVPSRFSGSGSGTEFTLTISSLQPEDFATYYCLQHNSYPRTFGQGTKVEIK
B3: human ZY0EPQ-E02 (antibody, V domains shown)
VH: QVQLQQWGAGLLKPSETLSLTCAVYGGSFSGYYWNWIRQPPGKGLEWIGEINHSGSTNYNPSLKSRVTILVDTSKNQFSLKLSSVTAADTAVYYCARNLYNWNLDSWGQGTLVTVSS
VL: DIQMTQSPSSLSASVGDRVTITCRASQGIRNDLGWYQQKPGRAPKRLIYVASSLQSGVPSRFSGSGSGTEFTLTISSLQPEDFATYYCLQHNSYPRTFGQGTKVEIK
B4: ZY0EP0-C07 human IgG1 (antibody, V domains shown)
VH: QVQLVESGGVLVKPGGSLRLSCAASGFTLSDYYMSWIRQAPGMGLEWVSYISSSGSTIYYTDSVKGRFTISRDSAKNSLYLQMNSLRAEDTAVYYCARDGVGFDYWGQGTLVTVSS
VL: EIVLTQSPGTLSLFPGERATLSCRASQSVSSSYLAWYQQKPGQSPRLLIYAASSRATGIPDRFSGSGSGTDFTLTISRLEPEDFAVYYCQQYGSSPLYTFGQGTKLEIK
notes: also called ZY0EPO-C07
B5: ZY0EO5-E07 human IgG1 (antibody, V domains shown)
VH: QVQLQESGPGLVKPSQTLSLTCTVSGGSISSGGYYWSWIRQHPGKGLEWIGNIYYSGSTYYNPSLKSRVTISVDTSKNQFSLKLSSVTAADTAVYYCAREKALASVIPSGYENYYVVDVWGQGTTVTVSS
VL: DIQLTQSPSFLSASVGGRVTITCWASQGIAGYLAWYQQKPGKAPKLLIYAASTLQSGVPSRFSGSGSGTEFTLTISSLQPEDFATYYCQHLNSYPLTFGGGTKVEIK
notes: also called ZY0E05-E07; E05-E07
B6: ZY0EOB-F05 human IgG1 (antibody, V domains shown)
VH: QVQLQESGPGLVKPSQTLSLTCTVSDGSISSGGYYWSWIRQHPGKGLEWIGNIYYSGSTYYNPSLKSRVTISVDTSKNQFSLKLNSVTAADTAVYYCATEKALATVTPSGYENYYTVDVWGQGTTVTVSS
VL: DIQLTQSPSFLSASVGDRVTITCWASQGISSYLAWYQQKPGKAPKLLIYAASTLQSGVPSRFSGSGSGTEFTLTISSLQPEDFATYYCQHLNSYPLTFGGGTKVEIK

Experiments:
[1] = target: T1, Human B7-H4-Fc (Human B7H4 ECD, Fc_6His) (human); experiment: HTRF binding, human IgG1
T1 construct: also called FcHis6 tagged human B7-H4
T1 sequence (Q7Z7D3 whole entry, looked up): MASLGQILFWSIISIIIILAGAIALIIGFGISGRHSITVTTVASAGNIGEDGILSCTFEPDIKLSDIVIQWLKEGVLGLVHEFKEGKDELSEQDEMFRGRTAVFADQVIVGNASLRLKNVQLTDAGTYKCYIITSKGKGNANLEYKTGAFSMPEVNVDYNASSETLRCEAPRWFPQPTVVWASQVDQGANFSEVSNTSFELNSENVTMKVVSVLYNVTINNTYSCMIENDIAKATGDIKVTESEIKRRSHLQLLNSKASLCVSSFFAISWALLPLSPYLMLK

[2] = target: T2, Cyno B7-H4-Fc (Cyno B7H4 ECD, FcTM_6His) (cynomolgus monkey); experiment: HTRF binding, human IgG1
T2 construct: extracellular domain; also called cynomolgus B7-H4-Fc

[3] = target: T3, Murine B7-H4-Fc (Mouse B7H4 ECD, Fc_6His) (mouse, UniProt Q7TSP5 25-257); experiment: HTRF binding, human IgG1
T3 construct: extracellular domain; also called mouse B7-H4-Fc; FcHis6 tagged murine B7-H4
T3 sequence (Q7TSP5 whole entry, looked up): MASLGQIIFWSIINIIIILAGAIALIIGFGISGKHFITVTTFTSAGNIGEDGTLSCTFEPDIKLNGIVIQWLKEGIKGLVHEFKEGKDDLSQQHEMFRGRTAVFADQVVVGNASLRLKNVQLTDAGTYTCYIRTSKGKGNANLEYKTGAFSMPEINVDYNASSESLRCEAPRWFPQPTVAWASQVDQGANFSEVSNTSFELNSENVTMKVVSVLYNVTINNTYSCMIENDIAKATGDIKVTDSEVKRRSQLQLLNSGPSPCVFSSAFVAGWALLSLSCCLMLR

[4] = target: T4, Human B7-H4 ECD-Flag-His10 (monomeric) (human, UniProt Q7Z7D3 25-259); experiment: Octet BLI, hIgG1 on Protein G (n = 1)
T4 construct: Minimally biotinylated for KinExA; also called hB7H4-ECD-Flag-His10; B7-H4-FLAG
T4 sequence: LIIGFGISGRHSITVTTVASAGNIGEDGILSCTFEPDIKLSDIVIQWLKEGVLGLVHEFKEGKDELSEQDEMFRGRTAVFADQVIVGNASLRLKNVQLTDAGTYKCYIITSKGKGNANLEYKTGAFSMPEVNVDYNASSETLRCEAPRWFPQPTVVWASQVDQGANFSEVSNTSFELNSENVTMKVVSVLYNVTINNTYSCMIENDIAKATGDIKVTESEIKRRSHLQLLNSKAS

[5] = target: T5, Murine B7-H4 ECD-Flag-His10 (monomeric) (mouse, UniProt Q7TSP5 25-257); experiment: Octet BLI, hIgG1 on Protein G (n = 1)
T5 construct: extracellular domain; also called FlagHis10 murine B7-H4
T5 sequence (looked up): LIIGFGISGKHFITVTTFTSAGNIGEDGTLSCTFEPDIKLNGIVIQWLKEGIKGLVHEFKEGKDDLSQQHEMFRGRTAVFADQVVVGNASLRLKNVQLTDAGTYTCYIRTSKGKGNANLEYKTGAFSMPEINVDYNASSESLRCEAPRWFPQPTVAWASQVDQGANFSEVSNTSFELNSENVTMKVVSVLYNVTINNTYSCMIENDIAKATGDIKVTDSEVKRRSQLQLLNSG

[6] = target: T6, Human B7H4 ECD (SV), splice variant, 10His_FLAG (human); experiment: Octet BLI, hIgG1 on Protein G (n = 1)
T6 construct: also called B7-H4-SV

huHHLA2 = target: T7, huHHLA2 (human, UniProt Q9UM44 23-344); experiment: ELISA, absorbance 450 nm, antigen human HHLA2 GST
T7 construct: Sourced antigen; construct not described; also called Human HHLA2
T7 sequence (looked up): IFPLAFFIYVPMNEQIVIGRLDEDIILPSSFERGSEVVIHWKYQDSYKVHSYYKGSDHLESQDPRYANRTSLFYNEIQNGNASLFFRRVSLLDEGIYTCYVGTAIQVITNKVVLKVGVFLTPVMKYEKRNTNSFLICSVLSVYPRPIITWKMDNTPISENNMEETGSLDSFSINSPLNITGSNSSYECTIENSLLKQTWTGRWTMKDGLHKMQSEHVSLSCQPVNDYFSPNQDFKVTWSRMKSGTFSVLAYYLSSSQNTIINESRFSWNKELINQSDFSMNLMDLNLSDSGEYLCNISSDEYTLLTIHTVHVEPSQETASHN

huBTN1A1 = target: T8, huBTN1A1 (human, UniProt Q13410 27-242, limits assumed); experiment: ELISA, absorbance 450 nm, antigen human BTN1A1 GST
T8 construct: Sourced antigen; construct not described; also called Human BTN1A1
T8 sequence (looked up): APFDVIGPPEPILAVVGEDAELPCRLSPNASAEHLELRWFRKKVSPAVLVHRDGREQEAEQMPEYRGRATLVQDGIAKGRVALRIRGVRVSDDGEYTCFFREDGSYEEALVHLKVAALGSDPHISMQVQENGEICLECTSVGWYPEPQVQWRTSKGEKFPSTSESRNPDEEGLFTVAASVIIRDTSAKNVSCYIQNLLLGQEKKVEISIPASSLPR

huBTN3A2 = target: T9, huBTN3A2 (human, UniProt P78410 30-248, limits assumed); experiment: ELISA, absorbance 450 nm, antigen human BTN3A2 GST
T9 construct: Sourced antigen; construct not described; also called Human BTN3A2

huB7-H3 = target: T10, huB7-H3 (human, UniProt Q5ZPR3 29-461, limits assumed); experiment: ELISA, absorbance 450 nm, antigen human B7-H3 (ECD) Fc
T10 construct: Sourced antigen; construct not described; also called Human B7-H3
T10 sequence (looked up): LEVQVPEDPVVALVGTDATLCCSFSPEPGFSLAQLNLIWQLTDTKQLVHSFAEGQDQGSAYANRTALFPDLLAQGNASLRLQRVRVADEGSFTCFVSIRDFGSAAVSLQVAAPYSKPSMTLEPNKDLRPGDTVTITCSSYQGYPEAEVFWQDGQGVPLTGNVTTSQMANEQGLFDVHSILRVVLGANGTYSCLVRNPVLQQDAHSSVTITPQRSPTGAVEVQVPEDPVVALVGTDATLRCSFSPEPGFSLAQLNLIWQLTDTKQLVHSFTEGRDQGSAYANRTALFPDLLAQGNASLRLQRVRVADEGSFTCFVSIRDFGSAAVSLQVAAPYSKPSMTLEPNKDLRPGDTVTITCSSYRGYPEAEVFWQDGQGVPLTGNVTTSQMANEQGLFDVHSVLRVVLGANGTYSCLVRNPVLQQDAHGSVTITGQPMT

huB7-H1 = target: T11, huB7-H1 (human, UniProt Q9NZQ7 19-238); experiment: ELISA, absorbance 450 nm, antigen human B7-H1(ECD) F10H
T11 construct: Sourced antigen; construct not described; also called Human B7-H1

huB7-H2 = target: T12, huB7-H2 (human, UniProt O75144 19-258); experiment: ELISA, absorbance 450 nm, antigen human B7-H2 (ECD) F10H
T12 construct: Sourced antigen; construct not described; also called Human B7-H2
T12 sequence (looked up): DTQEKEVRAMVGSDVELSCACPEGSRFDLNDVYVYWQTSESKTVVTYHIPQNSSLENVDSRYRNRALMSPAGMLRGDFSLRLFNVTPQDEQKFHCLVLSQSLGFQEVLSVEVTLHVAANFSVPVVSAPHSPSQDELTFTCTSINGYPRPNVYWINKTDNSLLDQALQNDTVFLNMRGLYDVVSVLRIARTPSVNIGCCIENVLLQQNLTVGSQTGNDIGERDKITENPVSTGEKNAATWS

T9 sequence (P78410 30-248 limits assumed): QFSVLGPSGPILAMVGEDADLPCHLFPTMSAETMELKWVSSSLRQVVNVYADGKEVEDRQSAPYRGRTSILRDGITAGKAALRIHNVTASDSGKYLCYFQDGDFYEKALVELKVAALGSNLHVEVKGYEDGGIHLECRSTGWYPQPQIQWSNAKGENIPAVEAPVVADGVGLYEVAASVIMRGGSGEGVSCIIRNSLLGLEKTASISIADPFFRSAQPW
T11 sequence (Q9NZQ7 19-238 limits assumed): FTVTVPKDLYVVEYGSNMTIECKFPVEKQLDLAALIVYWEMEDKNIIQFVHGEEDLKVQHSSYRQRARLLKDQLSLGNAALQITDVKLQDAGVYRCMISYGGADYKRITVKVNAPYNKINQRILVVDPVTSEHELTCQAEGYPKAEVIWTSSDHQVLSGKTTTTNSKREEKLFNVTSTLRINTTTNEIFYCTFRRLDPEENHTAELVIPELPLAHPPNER

Row | Binder | EC50 [1] | Max [1] | EC50 [2] | Max [2] | EC50 [3] | Max [3] | Kd [4] | koff [4] | kon [4] | Kd [5] | koff [5] | kon [5] | Kd [6] | koff [6] | kon [6] | further results
1 | B1 | 0.38 nM | 1130 | 0.33 nM | 987 | 1.49 nM | 279 | 24 nM | 0.00208 s⁻¹ | 85900 M⁻¹ s⁻¹ | 498 nM | 0.0498 s⁻¹ | 100000 M⁻¹ s⁻¹ | 1030 nM | 0.00252 s⁻¹ | 2460 M⁻¹ s⁻¹ | –
2 | B2 | 0.35 nM | 1240 | 0.28 nM | 1130 | 1.4 nM | 167 | 14.9 nM | 0.00321 s⁻¹ | 216000 M⁻¹ s⁻¹ | 625 nM | 0.213 s⁻¹ | 341000 M⁻¹ s⁻¹ | 834 nM | 0.00349 s⁻¹ | 4190 M⁻¹ s⁻¹ | –
3 | B3 | – | – | – | – | – | – | – | – | – | – | – | – | – | – | – | binding result (huHHLA2): no binding (tested: about 10 µg/ml (antigen)); binding result (huBTN1A1): no binding (tested: 10 µg/ml (antigen)); binding result (huBTN3A2): no binding (tested: about 10 µg/ml (antigen)); binding result (huB7-H3): no binding; binding result (huB7-H1): no binding (tested: 10 µg/ml (antigen)); binding result (huB7-H2): no binding (tested: 10 µg/ml (antigen))
4 | B4 | 0.3 nM | 1220 | 0.33 nM | 946 | 0.18 nM | 1320 | 7 nM | 0.000363 s⁻¹ | 48800 M⁻¹ s⁻¹ | 9 nM | 0.000551 s⁻¹ | 60200 M⁻¹ s⁻¹ | – | – | – | –
5 | B5 | 0.19 nM | 1710 | 0.18 nM | 1360 | 0.21 nM | 1300 | 14.6 nM | 0.000318 s⁻¹ | 21700 M⁻¹ s⁻¹ | 23.2 nM | 0.000415 s⁻¹ | 17900 M⁻¹ s⁻¹ | 182 nM | 0.000528 s⁻¹ | 2910 M⁻¹ s⁻¹ | –
6 | B6 | 0.15 nM | 1820 | 0.14 nM | 1480 | 0.19 nM | 1320 | 11.7 nM | 0.000362 s⁻¹ | 31000 M⁻¹ s⁻¹ | 19.8 nM | 0.000493 s⁻¹ | 24900 M⁻¹ s⁻¹ | 127 nM | 0.000598 s⁻¹ | 4710 M⁻¹ s⁻¹ | –
